Assay results taken from patent US20240209022A1, “NOVEL PEPTIDE HAVING ANTI-INFLAMMATORY AND TISSUE REGENERATIVE ACTIONS” (KOREA RESEARCH INSTITUTE OF BIOSCIENCE AND BIOTECHNOLOGY, priority 2020, published 2024).

System: Human skin keratin cell line (HaCaT)
Test: UVB photoaging gene expression in human skin keratinocytes
Format: cell-based
Details: 30 nM; UVB 10 mJ/cm^2; vs control group irradiated with UVB
Experimental: An experiment was conducted to examine the skin regeneration ability of the peptides of the present invention. Human skin keratin cell line (HaCaT) was cultured in DMEM medium containing 10% fetal bovine serum (FBS) and 1% penicillin-streptomycin at 37° C. and 5% CO2. When the cell density reached 80%, the cells were dispensed into a 6-well plate at 4×10^5 cells per well and cultured for 24 hours. After 24 hours, the cells were treated with Amuc 1409 at a concentration of 30 nM for 1 hour, washed twice with PBS (phosphate buffered saline) after 1 hour, and irradiated with ultraviolet light at 10 mJ/cm^2 using an ultraviolet (UVB) irradiation device (CL-1000 UV crosslinker; UVP, USA). After UV irradiation, the medium was replaced with serum-free medium, and the cells were immediately treated with Amuc_1409 for 8 hours.
In relation to skin wrinkles due to skin aging, in order to examine the expression of MMP-1 and MMP-3 genes, which are collagenase, and Col1a1 and Col3a1 genes, which are collagen synthesis enzymes, RNA was isolated from the cells in each well using Trizol (Invitrogen, USA) and quantified by nanodrop, and then cDNA was synthesized using 1 μg of each RNA. A mixture obtained by adding MMP-1, MMP-3, Col1a1 and Col3a1 primers and fluorescent dye AccuPower® 2× GreenStar™ qPCR Master Mix (BIONEER, Korea) to the synthesized cDNA was subjected to real-time polymerase chain reaction in a real-time PCR machine.

B1: Amuc_1409: SEQ ID NO: 15, functional fragment obtained by eliminating the leader sequence from SEQ ID NO: 14; protein derived from Akkermansia muciniphila (protein)
chain: IPESSVPAAAVSSIKGAYPNAGPIEWDSEMHGMERIYEAEFRINGFQFDVKIAPDGKIVRIKEEIAASSLPEAVRASVLKRYPGCRIKEAEKITEGELVRYKVEVADSRDDYDVLIAPDGNILHVDR
modifications: Amuc_1409_fragment
notes: protein derived from Akkermansia muciniphila
expression of Col1a1 gene: significantly increased | expression of Col3a1 gene: significantly increased | expression of MMP-1 gene: significantly decreased | expression of MMP-3 gene: significantly decreased
